Results from IntAct's records for PubMed 24275654.

B1: Tubulin beta-6 chain (Homo sapiens), Q9BUF5 (parent)
chain: MREIVHIQAGQCGNQIGTKFWEVISDEHGIDPAGGYVGDSALQLERINVYYNESSSQKYVPRAALVDLEPGTMDSVRSGPFGQLFRPDNFIFGQTGAGNNWAKGHYTEGAELVDAVLDVVRKECEHCDCLQGFQLTHSLGGGTGSGMGTLLISKIREEFPDRIMNTFSVMPSPKVSDTVVEPYNATLSVHQLVENTDETYCIDNEALYDICFRTLKLTTPTYGDLNHLVSATMSGVTTSLRFPGQLNADLRKLAVNMVPFPRLHFFMPGFAPLTSRGSQQYRALTVPELTQQMFDARNMMAACDPRHGRYLTVATVFRGPMSMKEVDEQMLAIQSKNSSYFVEWIPNNVKVAVCDIPPRGLKMASTFIGNSTAIQELFKRISEQFSAMFRRKAFLHWFTGEGMDEMEFTEAESNMNDLVSEYQQYQDATANDGEEAFEDEEEEIDG
B2: Tubulin beta-4A chain (Homo sapiens), P04350 (parent)
chain: MREIVHLQAGQCGNQIGAKFWEVISDEHGIDPTGTYHGDSDLQLERINVYYNEATGGNYVPRAVLVDLEPGTMDSVRSGPFGQIFRPDNFVFGQSGAGNNWAKGHYTEGAELVDAVLDVVRKEAESCDCLQGFQLTHSLGGGTGSGMGTLLISKIREEFPDRIMNTFSVVPSPKVSDTVVEPYNATLSVHQLVENTDETYCIDNEALYDICFRTLKLTTPTYGDLNHLVSATMSGVTTCLRFPGQLNADLRKLAVNMVPFPRLHFFMPGFAPLTSRGSQQYRALTVPELTQQMFDAKNMMAACDPRHGRYLTVAAVFRGRMSMKEVDEQMLSVQSKNSSYFVEWIPNNVKTAVCDIPPRGLKMAATFIGNSTAIQELFKRISEQFTAMFRRKAFLHWYTGEGMDEMEFTEAESNMNDLVSEYQQYQDATAEEGEFEEEAEEEVA
B3: Tubulin beta chain (Homo sapiens), P07437 (parent)
chain: MREIVHIQAGQCGNQIGAKFWEVISDEHGIDPTGTYHGDSDLQLDRISVYYNEATGGKYVPRAILVDLEPGTMDSVRSGPFGQIFRPDNFVFGQSGAGNNWAKGHYTEGAELVDSVLDVVRKEAESCDCLQGFQLTHSLGGGTGSGMGTLLISKIREEYPDRIMNTFSVVPSPKVSDTVVEPYNATLSVHQLVENTDETYCIDNEALYDICFRTLKLTTPTYGDLNHLVSATMSGVTTCLRFPGQLNADLRKLAVNMVPFPRLHFFMPGFAPLTSRGSQQYRALTVPELTQQVFDAKNMMAACDPRHGRYLTVAAVFRGRMSMKEVDEQMLNVQNKNSSYFVEWIPNNVKTAVCDIPPRGLKMAVTFIGNSTAIQELFKRISEQFTAMFRRKAFLHWYTGEGMDEMEFTEAESNMNDLVSEYQQYQDATAEEEEDFGEEAEEEA

Variants of: B1
Details: with lrrk2_human LRRK2, Q5S007
Sequence of lrrk2_human LRRK2, Q5S007 (Q5S007 whole entry): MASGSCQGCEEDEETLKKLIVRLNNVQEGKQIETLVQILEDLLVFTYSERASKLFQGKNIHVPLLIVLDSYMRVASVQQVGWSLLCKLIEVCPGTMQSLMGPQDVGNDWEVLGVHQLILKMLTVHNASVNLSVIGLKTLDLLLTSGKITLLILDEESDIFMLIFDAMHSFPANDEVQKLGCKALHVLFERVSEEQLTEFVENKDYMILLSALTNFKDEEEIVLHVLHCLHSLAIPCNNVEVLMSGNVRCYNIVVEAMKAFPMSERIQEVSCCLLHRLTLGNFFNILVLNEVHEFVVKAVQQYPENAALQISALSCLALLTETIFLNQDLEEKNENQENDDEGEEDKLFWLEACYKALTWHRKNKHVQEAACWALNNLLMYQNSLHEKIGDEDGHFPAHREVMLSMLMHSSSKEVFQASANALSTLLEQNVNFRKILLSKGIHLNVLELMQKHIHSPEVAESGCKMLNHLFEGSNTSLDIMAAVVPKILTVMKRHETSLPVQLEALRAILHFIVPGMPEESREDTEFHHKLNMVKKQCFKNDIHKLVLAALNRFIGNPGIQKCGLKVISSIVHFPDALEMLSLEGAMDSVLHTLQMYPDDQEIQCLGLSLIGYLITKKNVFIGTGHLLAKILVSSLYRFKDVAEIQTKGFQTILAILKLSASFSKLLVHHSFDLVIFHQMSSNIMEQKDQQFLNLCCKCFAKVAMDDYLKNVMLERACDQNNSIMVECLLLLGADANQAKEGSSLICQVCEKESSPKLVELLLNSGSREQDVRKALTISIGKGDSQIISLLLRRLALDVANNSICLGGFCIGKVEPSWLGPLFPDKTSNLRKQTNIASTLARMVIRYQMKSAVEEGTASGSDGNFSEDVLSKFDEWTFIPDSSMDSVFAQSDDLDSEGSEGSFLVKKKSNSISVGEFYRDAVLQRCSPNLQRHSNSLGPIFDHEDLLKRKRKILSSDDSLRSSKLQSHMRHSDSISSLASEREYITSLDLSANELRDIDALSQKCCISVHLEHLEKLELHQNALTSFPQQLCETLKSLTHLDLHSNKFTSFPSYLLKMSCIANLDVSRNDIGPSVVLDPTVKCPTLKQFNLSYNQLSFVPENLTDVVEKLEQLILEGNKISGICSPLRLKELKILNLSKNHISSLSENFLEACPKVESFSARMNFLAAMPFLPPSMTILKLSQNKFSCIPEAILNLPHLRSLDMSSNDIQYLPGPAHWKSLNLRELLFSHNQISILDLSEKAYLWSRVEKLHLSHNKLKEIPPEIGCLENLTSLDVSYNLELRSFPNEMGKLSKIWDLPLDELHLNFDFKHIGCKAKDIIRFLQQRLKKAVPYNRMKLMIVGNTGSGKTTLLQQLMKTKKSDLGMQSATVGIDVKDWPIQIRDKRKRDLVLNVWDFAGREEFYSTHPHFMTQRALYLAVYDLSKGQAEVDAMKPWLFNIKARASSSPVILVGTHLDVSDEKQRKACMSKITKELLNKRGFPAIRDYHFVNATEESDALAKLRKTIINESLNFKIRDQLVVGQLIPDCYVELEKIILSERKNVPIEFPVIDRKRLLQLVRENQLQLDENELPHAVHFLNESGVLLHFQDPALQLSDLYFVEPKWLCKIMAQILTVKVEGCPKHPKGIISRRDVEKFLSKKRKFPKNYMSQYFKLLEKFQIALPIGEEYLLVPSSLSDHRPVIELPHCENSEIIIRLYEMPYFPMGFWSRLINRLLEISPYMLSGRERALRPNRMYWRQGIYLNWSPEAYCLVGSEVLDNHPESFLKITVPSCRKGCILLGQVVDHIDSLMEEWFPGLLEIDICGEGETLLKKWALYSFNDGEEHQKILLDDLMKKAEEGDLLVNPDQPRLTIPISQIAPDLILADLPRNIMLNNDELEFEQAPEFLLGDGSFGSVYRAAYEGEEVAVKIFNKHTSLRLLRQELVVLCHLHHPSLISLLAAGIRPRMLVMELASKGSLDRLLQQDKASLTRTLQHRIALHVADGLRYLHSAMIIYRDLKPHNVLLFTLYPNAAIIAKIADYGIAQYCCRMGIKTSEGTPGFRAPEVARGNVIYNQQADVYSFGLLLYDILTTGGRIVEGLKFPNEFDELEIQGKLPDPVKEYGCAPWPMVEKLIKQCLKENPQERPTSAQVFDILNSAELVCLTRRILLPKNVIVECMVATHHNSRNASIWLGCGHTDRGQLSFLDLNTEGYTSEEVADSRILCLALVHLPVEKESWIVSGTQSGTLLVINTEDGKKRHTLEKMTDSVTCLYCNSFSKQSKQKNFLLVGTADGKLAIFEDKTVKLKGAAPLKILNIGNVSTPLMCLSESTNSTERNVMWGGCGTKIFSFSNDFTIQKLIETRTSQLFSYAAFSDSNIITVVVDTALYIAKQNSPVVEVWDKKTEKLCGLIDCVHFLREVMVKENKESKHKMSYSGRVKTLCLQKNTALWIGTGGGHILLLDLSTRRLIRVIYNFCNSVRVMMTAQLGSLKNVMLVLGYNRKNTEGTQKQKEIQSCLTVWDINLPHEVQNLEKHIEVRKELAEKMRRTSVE

effect of a mutation on the interaction | Variant
disrupting interaction | MREIVHIQAGQCGNQIGTKFWEVISDEHGIDPAGGYVGDSALQLERINVYYNESSSQKYVPRAALVDLEPGTMDSVRSGPFGQLFRPDNFIFGQTGAGNNWAKGHYTEGAELVDAVLDVVRKECEHCDCLQGFQLTHSLGGGTGSGMGTLLISKIREEFPDRIMNTFSVMPSPKVSDTVVEPYNATLSVHQLVENTDETYCIDNEALYDICFRTLKLTTPTYGDLNHLVSATMSGVTTSLRFPGQLNADLRKLAVNMVPFPRLHFFMPGFAPLTSRGSQQYRALTVPELTQQMFDARNMMAACDPRHGRYLTVATVFRGRMSMKEVDEQMLAIQSKNSSYFVEWIPNNVKVAVCDIPPRGLKMSSTFIGNSTAIQELFKRISEQFSAMFRRKAFLHWFTGEGMDEMEFTEAESNMNDLVSEYQQYQDATANDGEEAFEDEEEEIDG [P320R;A364S]
disrupting interaction | MREIVHIQAGQCGNQIGTKFWEVISDEHGIDPAGGYVGDSALQLERINVYYNESSSQKYVPRAALVDLEPGTMDSVRSGPFGQLFRPDNFIFGQTGAGNNWAKGHYTEGAELVDAVLDVVRKECEHCDCLQGFQLTHSLGGGTGSGMGTLLISKIREEFPDRIMNTFSVMPSPKVSDTVVEPYNATLSVHQLVENTDETYCIDNEALYDICFRTLKLTTPTYGDLNHLVSATMSGVTTSLRFPGQLNADLRKLAVNMVPFPRLHFFMPGFAPLTSRGSQQYRALTVPELTQQMFDARNMMAACDPRHGRYLTVATVFRGRMSMKEVDEQMLAIQSKNSSYFVEWIPNNVKVAVCDIPPRGLSMASTFIGNSTAIQELFKRISEQFSAMFRRKAFLHWFTGEGMDEMEFTEAESNMNDLVSEYQQYQDATANDGEEAFEDEEEEIDG [P320R;K362S]

Variants of: B2
Details: with lrrk2_human LRRK2, Q5S007

effect of a mutation on the interaction | Variant
disrupting interaction | MREIVHLQAGQCGNQIGAKFWEVISDEHGIDPTGTYHGDSDLQLERINVYYNEATGGNYVPRAVLVDLEPGTMDSVRSGPFGQIFRPDNFVFGQSGAGNNWAKGHYTEGAELVDAVLDVVRKEAESCDCLQGFQLTHSLGGGTGSGMGTLLISKIREEFPDRIMNTFSVVPSPKVSDTVVEPYNATLSVHQLVENTDETYCIDNEALYDICFRTLKLTTPTYGDLNHLVSATMSGVTTCLRFPGQLNADLRKLAVNMVPFPRLHFFMPGFAPLTSRGSQQYRALTVPELTQQMFDAKNMMAACDPRHGRYLTVAAVFRGRMSMKEVDEQMLSVQSKNSSYFVEWIPNNVKTAVCDIPPRGLKMEATFIGNSTAIQELFKRISEQFTAMFRRKAFLHWYTGEGMDEMEFTEAESNMNDLVSEYQQYQDATAEEGEFEEEAEEEVA [A364E]
disrupting interaction | MREIVHLQAGQCGNQIGAKFWEVISDEHGIDPTGTYHGDSDLQLERINVYYNEATGGNYVPRAVLVDLEPGTMDSVRSGPFGQIFRPDNFVFGQSGAGNNWAKGHYTEGAELVDAVLDVVRKEAESCDCLQGFQLTHSLGGGTGSGMGTLLISKIREEFPDRIMNTFSVVPSPKVSDTVVEPYNATLSVHQLVENTDETYCIDNEALYDICFRTLKLTTPTYGDLNHLVSATMSGVTTCLRFPGQLNADLRKLAVNMVPFPRLHFFMPGFAPLTSRGSQQYRALTVPELTQQMFDAKNMMAACDPRHGRYLTVAAVFRGRMSMKEVDEQMLSVQSKNSSYFVEWIPNNVKTAVCDIPPRGLKMDATFIGNSTAIQELFKRISEQFTAMFRRKAFLHWYTGEGMDEMEFTEAESNMNDLVSEYQQYQDATAEEGEFEEEAEEEVA [A364D]
disrupting interaction | MREIVHLQAGQCGNQIGAKFWEVISDEHGIDPTGTYHGDSDLQLERINVYYNEATGGNYVPRAVLVDLEPGTMDSVRSGPFGQIFRPDNFVFGQSGAGNNWAKGHYTEGAELVDAVLDVVRKEAESCDCLQGFQLTHSLGGGTGSGMGTLLISKIREEFPDRIMNTFSVVPSPKVSDTVVEPYNATLSVHQLVENTDETYCIDNEALYDICFRTLKLTTPTYGDLNHLVSATMSGVTTCLRFPGQLNADLRKLAVNMVPFPRLHFFMPGFAPLTSRGSQQYRALTVPELTQQMFDAKNMMAACDPRHGRYLTVAAVFRGRMSMKEVDEQMLSVQSKNSSYFVEWIPNNVKTAVCDIPPRGLKMSATFIGNSTAIQELFKRISEQFTAMFRRKAFLHWYTGEGMDEMEFTEAESNMNDLVSEYQQYQDATAEEGEFEEEAEEEVA [A364S]

Variants of: B3
Details: with lrrk2_human LRRK2, Q5S007

effect of a mutation on the interaction | Variant
disrupting interaction | MREIVHIQAGQCGNQIGAKFWEVISDEHGIDPTGTYHGDSDLQLDRISVYYNEATGGKYVPRAILVDLEPGTMDSVRSGPFGQIFRPDNFVFGQSGAGNNWAKGHYTEGAELVDSVLDVVRKEAESCDCLQGFQLTHSLGGGTGSGMGTLLISKIREEYPDRIMNTFSVVPSPKVSDTVVEPYNATLSVHQLVENTDETYCIDNEALYDICFRTLKLTTPTYGDLNHLVSATMSGVTTCLRFPGQLNADLRKLAVNMVPFPRLHFFMPGFAPLTSRGSQQYRALTVPELTQQVFDAKNMMAACDPRHGRYLTVAAVFRGRMSMKEVDEQMLNVQNKNSSYFVEWIPNNVKTAVCDIPPRGLKMDVTFIGNSTAIQELFKRISEQFTAMFRRKAFLHWYTGEGMDEMEFTEAESNMNDLVSEYQQYQDATAEEEEDFGEEAEEEA [A364D]
disrupting interaction | MREIVHIQAGQCGNQIGAKFWEVISDEHGIDPTGTYHGDSDLQLDRISVYYNEATGGKYVPRAILVDLEPGTMDSVRSGPFGQIFRPDNFVFGQSGAGNNWAKGHYTEGAELVDSVLDVVRKEAESCDCLQGFQLTHSLGGGTGSGMGTLLISKIREEYPDRIMNTFSVVPSPKVSDTVVEPYNATLSVHQLVENTDETYCIDNEALYDICFRTLKLTTPTYGDLNHLVSATMSGVTTCLRFPGQLNADLRKLAVNMVPFPRLHFFMPGFAPLTSRGSQQYRALTVPELTQQVFDAKNMMAACDPRHGRYLTVAAVFRGRMSMKEVDEQMLNVQNKNSSYFVEWIPNNVKTAVCDIPPRGLKMSVTFIGNSTAIQELFKRISEQFTAMFRRKAFLHWYTGEGMDEMEFTEAESNMNDLVSEYQQYQDATAEEEEDFGEEAEEEA [A364S]
disrupting interaction | MREIVHIQAGQCGNQIGAKFWEVISDEHGIDPTGTYHGDSDLQLDRISVYYNEATGGKYVPRAILVDLEPGTMDSVRSGPFGQIFRPDNFVFGQSGAGNNWAKGHYTEGAELVDSVLDVVRKEAESCDCLQGFQLTHSLGGGTGSGMGTLLISKIREEYPDRIMNTFSVVPSPKVSDTVVEPYNATLSVHQLVENTDETYCIDNEALYDICFRTLKLTTPTYGDLNHLVSATMSGVTTCLRFPGQLNADLRKLAVNMVPFPRLHFFMPGFAPLTSRGSQQYRALTVPELTQQVFDAKNMMAACDPRHGRYLTVAAVFRGRMSMKEVDEQMLNVQNKNSSYFVEWIPNNVKTAVCDIPPRGLKMEVTFIGNSTAIQELFKRISEQFTAMFRRKAFLHWYTGEGMDEMEFTEAESNMNDLVSEYQQYQDATAEEEEDFGEEAEEEA [A364E]
